Measurements from patent publication US20250352589A1, “OXYTOCIN-MIMETIC COMPOSITIONS AND USES THEREOF” (INSTITUT NATIONAL DE LA SANTÉ ET DE LA RECHERCHE MÉDICALE, priority 2021, published 2025).

B1: 2,3-bisphosphoglycerate-dependent phosphoglycerate mutase (protein, listed as Lactobacillus camelliae)
chain: MAKLVLIRHGQSEWNLSNQFTGWVDVDLSEKGTEEAKEAGRRIKKAGLEFDQAYTSVLTRAIKTLHYALEESDQLWIPETKTWRLNERHYGALQGQNKAEAAKKWGDEQVHIWRRSYDTLPPLLSADDEGSAAKDRRYANLDPRIIPGGENLKVTLERVIPFWEDHIAPDLLDGKNVIIAAHGNSLRALTKYIENISDEDIINLEMTTGEPVVYTFNDKLEVTDKVKLSK
modifications: 2,3-bisphosphoglycerate-dependent phosphoglycerate mutase
notes: protein expressed by Lactobacillus camelliae
B2: Prolable phosphoketolase (protein, listed as Bifidobacterium pseudolongum)
chain: MTNPVIGTPWQKLDRPVSEEAIEGMDKYWRVTNYMSIGQIYLRSNPLMKEPFTRDDVKHRLVGHWGTTPGLNFLLAHINRLIADHQQNTVFIMGPGHGGPAGTSQSYVDGTYTEYYPNITKDEAGLQKFFRQFSYPGGIPSHFAPETPGSIHEGGELGYALSHAYGAVMNNPSLFVPCIIGDGEAETGPLATGWQSNKLVNPRTDGIVLPILHLNGYKIANPTILARISDEELHDFFRGMGYHPYEFVAGFDNEDHMSIHRRFAELFETIFDEICDIKAAAQTDDMTRPFYPMLIFRTPKGWTCPKFIDGKKTEGSWRAHQVPLASARDTEEHFEVLKGWLESYKPEELFNADGSIKDDVTAFMPKGDLRIGANPNANGGVIREDLKLPELDQYEVTGVKEYGHGWGQVEAPRSLGAYCRDIIKNNPDSFRIFGPDETASNRLNATYEVTDKQWDNGYLSSLVDEHMAVTGQVTEQLSEHQCEGFLEAYLLTGRHGIWSSYESFVHVIDSMLNQHAKWLEATVREIPWRKPISSVNLLVSSHVWRQDHNGFSHQDPGVTSVLINKTFNNDHVTNIYFATDANMLLAISEKCFKSTNKINAIFAGKQPAPTWITLDEARAELEAGAAEWKWASNAENNDEVQVVLAAAGDVPTQEIMAASDALNKMGIKFKVVNVVDLLKLQSRENNDEALTDEEFTDLFTADKPVLFAYHSYAQDVRGLIYDRPNHDNFNVVGYKEQGSTTTPFDMVRVNDMDRYALQAAALKMIDADKYADKIDELNAFRQKAFQFAVDNGYDIPEFTDWVYPDVKVDETQMLSATAATAGDNE
modifications: Probable phosphoketolase
notes: protein expressed by Bifidobacterium pseudolongum subsp. globosum
B3: GMP synthase (protein, listed as Lactobacillus plantarum)
chain: MAKTDTASFDSILVLDFGSQYNQLITRRIRDFGVYSELLPNTITAEEIKARHPKGIIFSGGPNSVYDDGAFRVDPEIFKLGLPILGICYGMQLMTYTLAGGKVESADNREYGKANIDVTSDSATLFKDTPAEQSVWMSHGDLVTQAPDGFDVVATSKNCPIAAIQDVDRKLYGIQFHAEVRNTDYGNDILRHFAFDVCQAEANWSMDDFIDMQIEKIRAEVGDKKVLLGLSGGVDSSVVGVLLHKAIGTQLTSIFVDHGLLRKGEADQVMASLEGKFGLNIIKVDAKDRFLSKLAGVSDPERKRKIIGNEFIQVFDEEATKLNGMEFLAQGTLYTDVIESGTSTAQTIKSHHNVGGLPEDMQFKLIEPLRTLFKDEARELGEKLGMPSDLVWRQPFPGPGLGIRVIGEITEDKLEIVRDSDFILRDEIKKAGLDREIWQYFTVLPGIKSVGVMGDGRTYDYTVGIRAVTSIDGMTADFARIPWDVLQKISVRIVNEVDHVNRIVYDVTSKPPSTIEWE
modifications: GMP synthase
notes: protein expressed by Lactobacillus plantarum
B4: Enolase 1 (protein, listed as Lactobacillus gasseri)
chain: MLKSVIENVHALEIFDSRGNPTVEVFVTLSNGVVGKAEVPSGASTGENEAVELRDGGSRLGGKGVMNAVNNVNTEINDALKGLDPHDQPNIDATMIALDGTPNKGRLGANAILGVSMATACAAAKDNHQPLYRYLGGTDLEMPQTFHNVINGGEHADNGIDIQEFMITPVAKTSFRDGFEKIVNVYHTLKKVLEDMGYETGLGDEGGFAPNMKNSEEALKALHESIIKAGYKPGEDIAIACDCAASYFYNKEDGKYHLEGKVLTDEELADYYDKLLDEFPELISMEDPYDENDVEGMVKFTESHKDRIQIVLDDFICTNPKLLNKAIHEGAGNASLIKLNQIGTVTETLETIRLSRKNGYNTMISHRSGETGDTFIADFAVAVNGGQLKSGAPARSERVEKYNRLLEIEEELGKGERLAFFPDNVDLD
modifications: enolase1
notes: protein expressed by Lactobacillus gasseri
B5: Triosephosphate isomerase (protein, listed as Lactobacillus camelliae)
chain: MAGNWKMNKNPEETQAFLDGVKGKLPESSKVQTVIAAPAIDLTTLVAGAKGTPLQTAAENCYFEDAGAFTGETSPKALKDMGLDYVVIGHSERRGYFHETDQDINKKAKAILKNGLLPIICCGESLDQREAGQTNDWVASQVEAALAGISAADVKNSVIAYEPIWAIGTGKTASADQAQEVVAHIRSIVAKLYDAETADAVRILYGGSVKPANVKELMAKPDIDGGLVGGASMDPESFVALANYQD
modifications: Triosephosphate isomerase
notes: as for B1
B6: Phosphoglycerate kinase (protein, listed as Bifidobacterium dentium)
chain: MKTLKDLGDLKGKRVLVRADFNVPLDGTTITDDGRIKAALPTIKALREEGAKVILMAHLGRPKGKVVPELSLAPVATRLGELLGVEVPLASDTYGEDAQAKVAAMNDGDVVLLQNVRFNPEETSKDPEERAAYAKKIAALGEAFVSDGFGVVHRAQGSNYDVAADLPAAAGLLVEKEVKALSRATVDPERPLTVVLGGSKVSDKLGVIENLLDKADRLVIGGGMVYTFLKAKGLEVGTSLLEEDQVETVKGYIERAEKNGVELVLPTDIVVNPVFPKSDEDIAPEVVAADAIPADKMGLDIGPDSQKLFHDKIVDSKTVVWNGPMGVFEVPAFAAGTEAVAQGLVDATAAGAFTIVGGGDSASAVRNLGFPEDGFSHISTGGGASLEFLEGKELPGLKVLD
modifications: Phosphoglycerate kinase
notes: protein expressed by Bifidobacterium dentium
B7: 2,5-didehydrogluconate reductase (protein, listed as Lactobacillus camelliae)
chain: MAEISKMSDTYTLSNGVKIPIVGFGTWQTPDGDVAKHSVEVAIKDGYRHIDTAAMYRNEDSVGEGIKAGLAAAGLKRDDLFVTTKLNNNAHSFDLVQKAIDESLTKLGLDHVDLYLIHWPNPVSFRDSYPDSLKETWRGMEQVYKDGKARAIGISNFRQAHLDVIKADATVEPMVNQIFLNPSDLQPAVTKMNAENNILSEAYSPLGTGKLLGNEELAKVAAKYGKGVAQVLLRWSLQHGFLPLAKSVHDARIKENTELFDFTLSDEDMKTLDGMRGVAGLATDPDTTNF
modifications: 2,5-didehydrogluconate reductase
notes: as for B1
B8: Glutamine-fructose-6-phosphate aminotransferase (protein, listed as Lactobacillus plantarum)
chain: MCGIVGVTGKDSAVSILLNGLEKLEYRGYDSAGIYVNDQDGHDYLVKEKGRIDDLRKEVGEAVHGSTGIGHTRWATHGEPSVANAHPQVSADGRFYLVHNGVIENFEDLKQTYLSDVTFKSQTDTEVIVQLVDRFVTKEGLSTLAAFRKTLGLLGHSSYGFLLMDKEDPDTLYVAKNKSPLLIGVGEGFNVVCSDSLAMLDQTKDFLELHDGEIVVVKPDEIKITNQAGEPVERKPFHVDIDAAQADKGTYPFYMLKEIDEQPNVMRKLSQVYLNDAGDPIINDDLLTALKAADRLYIVAAGTSYHAGLVGAKLFESLANVPTEVHVSSEFAYNQPLLSAHPFFIFLTQSGETADSREVLLNVNDQHFPSLTITNVPNSTLSREATYTLLLHAGPEIAVASTKAYTAQIALQAILAKALGVAVDQPAATAFDVKQQLALVANGMQSLVDEKATFEKIAKSALLNTPNAFYIGRGLDYAVSLETALKLKEISYVQAEGFASGELKHGTIALIEKDTPVIGIITQKNTAGLTRSNLQEVAARGAKTVTIVTDSLAKDGDTVILPTVDERLTALLSVVPGQLLAYYTSLNKGLDVDKPRNLAKSVTVE
modifications: Glutamine-fructose-6-phosphate aminotransferase
notes: as for B3
B9: Phosphoketolase (protein, listed as Bifidobacterium dentium)
chain: MTSPVIGTPWKKLNAPVSEEAIEGVDKYWRAANYLSIGQIYLRSNPLMKEPFTREDVKHRLVGHWGTTPGLNFLIGHINRLIADHQQNTVIIMGPGHGGPAGTAQSYLDGTYTEYFPNITKDEAGLQKFFRQFSYPGGIPSHYAPETPGSIHEGGELGYALSHAYGAVMNNPSLFVPAIVGDGEAETGPLATGWQSNKLVNPRTDGIVLPILHLNGYKIANPTILSRISDEELHEFFHGMGYEPYEFVAGFDNEDHLSIHRRFAELFETVFDEICDIKAAAQTDDMTRPFYPMIIFRTPKGWTCPKFIDGKKTEGSWRSHQVPLASARDTEAHFEVLKNWLESYKPEELFDANGAVKPEVTAFMPTGELRIGENPNANGGRIREELNLPALEDYEVKEVAEYGHGWGQLEATRRLGVYTRDIIKNNPDSFRIFGPDETASNRLQAAYDVTNKQWDAGYLSAQVDEHMAVTGQVTEQLSEHQMEGFLEAYLLTGRHGIWSSYESFVHVIDSMLNQHAKWLEATVREIPWRKPISSMNLLVSSHVWRQDHNGFSHQDPGVTSVLLNKCFNNDHVIGIYFPVDSNMLLAVAEKCYKSTDMINAIIAGKQPAATWLTLDEARAELEKGAAEWEWASTAKSNDEAQIVLASAGDVPAQEIMAAADKLDAMGIKFKVVNVVDLVKLQSTKENDEAISDADFADLFTEDKPVLFAYHSYARDVRGLIYDRPNHDNFNVHGYEEQGSTTTPYDMVRVNNIDRYELVAEALRMIDADKYADKIDELEAFRKEAFQFAVDNGYDHPDYTDWVYSGVNTNKQGAVSATAATAGDNE
modifications: phosphoketolase
notes: as for B6

system: anti-oxytocin antibodies; experiment: Proteomic analysis: 2D gel and OT immunodetection (OT IgG) of bacterial proteomes; format: binding; settings: 2D-immunoblotting, spots identified by mass spectrometry
Method: In this study, 14 bacteria-extracted proteomes were analyzed: (i) from 5 Bifidobacterium species grown in anaerobe conditions, (ii) from 5 Lactobacillus species grown in anaerobe culture conditions and (iii) from 4 aerotolerant Lactobacillus species grown in aerobe conditions. Each proteome analysis was performed in triplicate and was further separated in 3 fractions i.e. soluble (S), membrane (M), and residual (R) resulting in 9 samples/proteome). Each fraction was initially screened by western blot (WB) for the presence OT-like reactivity to validate it for further 2D-SDS-PAGE analysis. […] Finally, all fractions have been analyzed using 2D gel technique and OT immunodetection. 2D gel electrophoresis allowed to improve visibility of the less abundant proteins in a complex sample. Thereby, all samples were analyzed at least once with this method to scan optimally each proteome in the search for OT mimicry. […] The specificity for OT-like staining was controlled by pre-adsorption of OT-IgG with OT peptide.
All protein spots in silver nitrate staining gels corresponding to OT-like spots in the membrane were excised and analyzed by mass spectrometry

Question: For B1, which “immune cross-reaction with anti-oxytocin antibodies” value (from here on “immune cross-reaction”) is on record?
Answer: immune cross-react with anti-oxytocin antibodies

Question: How did the “immune cross-reaction” value turn out when B2 was run?
Answer: immune cross-react with anti-oxytocin antibodies

Question: How did the “immune cross-reaction” value turn out when B3 was run?
Answer: immune cross-react with anti-oxytocin antibodies

Question: Which “immune cross-reaction” value does the source give for B4 here?
Answer: immune cross-react with anti-oxytocin antibodies

Question: How did the “immune cross-reaction” value turn out when B5 was run?
Answer: immune cross-react with anti-oxytocin antibodies

Question: With B6 as the molecule, how does the “immune cross-reaction” value read?
Answer: immune cross-react with anti-oxytocin antibodies

Question: B7 was tested. Which “immune cross-reaction” value did it give?
Answer: immune cross-react with anti-oxytocin antibodies

Question: With B8 as the molecule, how does the “immune cross-reaction” value read?
Answer: immune cross-react with anti-oxytocin antibodies

Question: How did the “immune cross-reaction” value turn out when B9 was run?
Answer: immune cross-react with anti-oxytocin antibodies
